Data published in US20100254901, “Compositions comprising nucleic acid aptamers” (published 2010).

B1: 5' primer (ssDNA)
DNA: ATACCAGCTTATTCAATT
B2: clone22bases19-42 (ssDNA)
DNA: GGGGGAGGGGGCGACGCGATACCC
B3: clone26bases1-50 (ssDNA)
DNA: ATACCAGCTTATTCAATTGGGGTAGGGGGCGAAGCGATACCCTAATCAGC
B4: clone22bases1-42 (ssDNA)
DNA: ATACCAGCTTATTCAATTGGGGGAGGGGGCGACGCGATACCC

Key:
[1] = system: Bovine gamma globulin (BGG) (Bos taurus); test: FP; conditions: control protein
[2] = target: T1, Carcinoembryonic antigen (CEA) (Homo sapiens, UniProt P06731 P06731:35-685); test: FP; physiological binding buffer; conditions: tags: Calbiochem; label: 5'-fluorescein
T1 sequence (P06731 35-685, one chain of several): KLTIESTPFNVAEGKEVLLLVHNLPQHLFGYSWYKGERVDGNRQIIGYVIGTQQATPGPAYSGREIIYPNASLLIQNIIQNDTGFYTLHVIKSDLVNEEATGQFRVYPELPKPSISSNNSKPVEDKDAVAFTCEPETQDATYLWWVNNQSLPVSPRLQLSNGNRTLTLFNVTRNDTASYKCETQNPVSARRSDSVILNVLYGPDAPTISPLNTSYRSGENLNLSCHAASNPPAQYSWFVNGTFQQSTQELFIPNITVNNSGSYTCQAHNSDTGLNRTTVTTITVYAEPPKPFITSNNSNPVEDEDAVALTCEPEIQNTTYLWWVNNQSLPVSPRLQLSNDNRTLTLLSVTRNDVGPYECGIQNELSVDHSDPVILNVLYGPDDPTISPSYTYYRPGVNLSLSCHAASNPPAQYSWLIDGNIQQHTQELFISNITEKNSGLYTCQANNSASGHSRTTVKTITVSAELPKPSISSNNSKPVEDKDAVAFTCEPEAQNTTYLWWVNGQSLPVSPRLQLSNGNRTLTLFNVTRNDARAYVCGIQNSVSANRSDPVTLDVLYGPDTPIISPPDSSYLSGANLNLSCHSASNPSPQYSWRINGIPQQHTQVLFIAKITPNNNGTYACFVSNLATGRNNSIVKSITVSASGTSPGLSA
Description: (§1) A fluorescent polarization (FP) assay was used to test the affinity of several oligonucleotide sequences to CEA (Table 4). The initial studies focused on 5 oligonucleotides. Clone 22 and clone 26 contained the sequences with the highest identity to the G-rich motif. The aptamers were synthesized with fluorescein at their 5′ ends and binding was analysis using the Beacon 2000 instrument equipped with a 530 nm emission filter and a 490 nm excitation filter from Pan Vera Corp. (Madison Wis.).
(§2) In the FP assay, fluorescently labelled aptamers are added to the protein. Binding is detected by an increase in fluorescent polarization cause by the decrease in rotation of the protein bound fluorescein (FIG. 4A). The Kd is calculated by determining the CEA concentration at the half maximal mP value as determined from plots of averaged stable mP data as shown in FIGS. 4B and C. […] Unfortunately, others members of the CEA superfamily are not available commercially.

[3] = target: Bovine serum albumin (BSA) (Bos taurus, UniProt P02769 P02769:25-607); test: FP; control protein; conditions: label: 5'-fluorescein
Sequence of Bovine serum albumin (BSA) (P02769 25-607, one chain of several): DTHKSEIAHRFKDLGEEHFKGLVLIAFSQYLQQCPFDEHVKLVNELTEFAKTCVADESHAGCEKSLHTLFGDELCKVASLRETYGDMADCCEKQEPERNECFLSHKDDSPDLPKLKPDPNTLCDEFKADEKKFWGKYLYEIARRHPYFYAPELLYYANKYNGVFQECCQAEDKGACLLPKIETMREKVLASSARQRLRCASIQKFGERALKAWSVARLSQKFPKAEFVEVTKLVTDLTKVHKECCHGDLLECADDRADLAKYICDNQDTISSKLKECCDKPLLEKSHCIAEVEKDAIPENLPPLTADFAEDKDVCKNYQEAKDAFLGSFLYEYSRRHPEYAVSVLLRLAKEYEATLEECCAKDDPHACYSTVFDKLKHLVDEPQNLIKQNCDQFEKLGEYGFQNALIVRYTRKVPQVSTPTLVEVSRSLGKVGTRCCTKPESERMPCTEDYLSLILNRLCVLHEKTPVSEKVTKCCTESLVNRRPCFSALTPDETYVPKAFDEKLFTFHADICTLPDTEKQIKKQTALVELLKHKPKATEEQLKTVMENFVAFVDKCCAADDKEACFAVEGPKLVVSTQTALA
Description: as §1, §2

[4] = target: T1, Carcinoembryonic antigen (CEA); test: FP; primer region absent; physiological binding buffer; conditions: tags: Calbiochem; label: 5'-fluorescein
Description: as §1, §2

[5] = target: T1, Carcinoembryonic antigen (CEA); test: FP; physiological binding buffer; table header prints nM-1, text nM; conditions: tags: Calbiochem; label: 5'-fluorescein
Description: as §1, §2
FIG. 4. Binding of clone26bases 1-50 to CEA monitored by FP in a physiological binding buffer using 4 nM aptamer. (A) Shown is the mP as a function a reading number (sample #). CEA (8 nM) was added after the tenth reading. (B) Shown is the average mP vs aptamer concentration. (C) Shown is the average mP vs CEA concentration within the linear range.

Row | Molecule | Kd [1] | Kd [3] | further results
1 | ATACCAGCTTATTCAATTGGGGTAGGGGGCGAAGCGATACCCTAATCAGC [clone26bases1-50] | 100 nM |  | 
2 | ATACCAGCTTATTCAATTGGGGGAGGGGGCGACGCGATACCC [clone22bases1-42] | 500 nM |  | 
3 | GGGGGAGGGGGCGACGCGATACCC [clone22bases19-42] | 250 nM |  | 
4 | ATACCAGCTTATTCAATT [5' primer] | 400 nM |  | 
5 | B1 |  | 300 nM | Kd [2]: 5 nM
6 | B2 |  | 400 nM | Kd [4]: 20 nM
7 | B3 |  | 100 nM | Kd [5]: 4 nM
8 | B4 |  | 200 nM | Kd [2]: 5 nM
